In the supplement of paper PMC10567573:

B1: SNAP91 (parent)
chain: FAAPSPATTASPAKVDSSGVIDLF
B2: RTN1 (parent)
chain: VVAYLALAALSATISFRIYKSVLQ

Variants of: B1
Test: protein stability index of a GFP-peptide fusion (GPS, HEK-293T) (PSI 1-6); higher = more stable
Conditions: c terminus: a fixed tail appended
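Further: lentivirally expressed fusions sorted by FACS into six bins by GFP to DsRed ratio, PSI derived from sequencing read proportions per bin multiplied by bin number.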

Protein stability index, by site and new letter:
V20: L 2.57, A 2.45, T 2.51, F 1.56, D 3.22, W 1.54, K 2.78, Q 2.96, E 3.42, Y 2.07, M 2.5, R 2.63, C 2.08, S 2.43, N 2.77, P 2.79, G 2.77, H 2.72, I 2.25
F24: I 3.34, G 4.35, S 3.77, D 4.54, Q 3.85, H 4.52, R 3.56, P 4.31, N 4.1, L 3.13, E 4.51, K 4.2, W 1.22, A 4.03, T 3.75, Y 2.88, V 3.99, M 3.72
D22: H 1.94, G 1.75, E 2.46, L 2.57, R 1.87, T 1.73, S 1.76, Q 2.26, K 2.11, Y 2.04, F 2.93, P 2.68, V 1.75, A 2.03, M 2.81, N 2.24
I21: R 3.23, M 3.15, K 3.79, Y 2.11, A 2.49, G 3.64, V 3.22, Q 3.05, L 2.65, D 3.96, W 1.88, T 3.07, E 3.96, H 2.51, P 2.8, S 3.37, C 2.63, N 4.12, F 2.25
G19: P 2.06, Y 1.58, N 2.59, A 2.56, E 2.84, W 1.55, K 2.38, D 2.94, R 2.44, L 2.24, S 2.58, I 1.41, Q 2.69, M 1.92, T 2.57, F 1.26, C 1.83, H 2.4, V 2.07
L23: T 3.74, W 2.55, G 3.51, S 4.11, F 2.29, A 3.78, E 4.4, P 3.74, R 3.76, Q 4.46, Y 3.2, D 4.69, C 2.79, M 3.25, V 2.83, H 4.27, K 4.12, I 2.51, N 4.14
S18: Q 2.49, P 2.83, R 2.11, Y 1.66, N 2.43, V 2.1, M 2.06, T 2.49, W 1.37

Variants of: B2
Test: as above
Conditions: c terminus: a fixed tail appended

Protein stability index, by site and new letter:
V2: Y 3, A 2.61, I 1.66, R 3.31, D 2.43, S 2.18, Q 3.03, K 4.51, M 2.66, C 3.71, G 1.72, W 1.31, H 4.06, P 1.66, T 3.88, N 2.97, F 2.9, L 2.63, E 2.41
L10: H 2.74, A 2.38, Y 2.83, F 2.31, M 3.33, P 2.69, K 2.42, W 2.44, N 3.25, C 2.2, T 2.51, R 1.98, G 3.08, E 2.17, Q 2.41
A3: C 3.67, E 3.04, P 2.66, D 2.01, H 2.2, W 2.72, F 2.82, L 2.06, R 2.69, Q 2.68, K 1.08, V 2.16, G 1.88, I 2.65, M 2.6, Y 3.35
A12: Y 2.39, H 3.12, Q 2.67, C 2.45, T 1.95, F 2.85, L 3.9, W 3.1, V 3.42, E 2.05
L7: A 3.97, G 3.96, E 2.39, M 2.91, R 2.26, W 4.04, D 1.99, Y 3.97, F 2.47, I 2.46, K 3.13, Q 2.07, V 3.13, P 2.7, T 2.52, S 2.63, N 2.38
A6: T 2.77, G 4.25, D 3.37, R 3.2, Q 1.42, K 2.74, P 2.32, C 2.86, Y 2.9, F 3.07, E 2.6, H 2.32, W 3.42, M 3.4, I 1.91, S 2.88, V 3.12
I14: A 2.8, L 1.7, E 3.06, G 2.49, M 3.4, K 1.96, H 2.72
A8: W 3.8, L 2.31, I 3.23, T 2.32, R 2.18, P 3.27, Q 4.3, N 1.69, M 4.1, Y 2.76, K 2.2, C 1.26, D 2.28, F 1.68, E 2.46, H 1.75, S 1.95
V1: Q 2.13, C 1.99, W 1.72, S 2.55, H 1.68, R 2.44, I 2.75, N 2.64, L 2.56, F 2.66, T 2.62, A 3.01, G 1.96, Y 2.03, D 2.2, M 2.21, K 1.61, E 3.26
L5: K 1.89, F 3.22, P 2.31, W 3.59, E 1.58, D 2.42, V 1.63, Y 1.83, G 1.95, M 2.54, R 1.78, A 2.47, Q 2.8, N 2.34, I 2.01, H 2.85, T 2.43
A9: L 2.44, F 2.86, K 2.25, E 2.85, P 3.77, S 2.41, I 2.31, T 2.52, N 3.05, W 1.94, D 2.48, C 2.86, G 1.53, M 1.46, Y 3.25, V 2.94
S11: Y 2.33, F 2.3, W 2.55, A 3.26, H 2.33, P 2.49, R 2.44, D 3.61, N 3.04, G 2.02, M 2.45, K 2.4, V 1.41, C 1.28, T 2.81
Y4: G 4.1, H 2.65, M 2.6, D 2.35, T 4.26, K 2.3, F 2.5, R 3, C 3.23, W 1.9, P 1.75, N 3.01, L 2.37, E 2.1, Q 2.68, I 4.11
T13: H 2.61, V 2.39, N 2.54, E 3.33, A 1.2, G 1.32, M 1.58, R 2.82, K 2.77, F 2.43, C 1.87, I 2.86, W 2.05, P 2.21, Y 1.86
